Source: the supplement of paper PMC10724198
± gives the standard deviation of the averaged measurements.

Key:
Saccharomyces cerevisiae [1] = assay: protein stability index of tFT-peptide fusion (C-terminal peptide) (PSI (0-1 scale)); higher = more stable (slower turnover)
Experimental: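 MPS profiling in S. cerevisiae of the tFT-X12 degron library: putative degron peptides plus stable controls, 12 aa, fused to the C-terminus of a sfGFP-mCherry timer. Cells are FACS-sorted into 8 mCherry/sfGFP bins and deep-sequenced. PSI runs from 0 (unstable) to 1 (stable). Backgrounds are wild type, das1Δ and doa10Δ at 30 °C, and wild type, das1Δ, cdc34-1 and cdc53-1 at 37 °C; 2-3 technical replicates each.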

Saccharomyces cerevisiae [2] = assay: as above; conditions: genetic background: wild type; temperature: 30 C
[3] = genetic background: cdc34-1, temperature: 37 C
[4] = genetic background: cdc53-1, temperature: 37 C
[5] = genetic background: das1 deletion, temperature: 30 C
[6] = genetic background: das1 deletion, temperature: 37 C
[7] = genetic background: doa10 deletion, temperature: 30 C
[8] = genetic background: wild type, temperature: 30 C
[9] = genetic background: wild type, temperature: 37 C
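Note: PSI is a weighted mean of sequencing reads over stability bins, variants kept only with over 10 reads, mCherry proximal and sfGFP distal, peptide attached via GGGS linker.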

WVFVVWFVFVVG gave a protein stability index (Saccharomyces cerevisiae [1]; [3]) of 0.242 ± 0.022, a protein stability index (Saccharomyces cerevisiae [1]; [4]) of 0.3112 ± 0.00051 and a protein stability index (Saccharomyces cerevisiae [1]; [5]) of 0.241 ± 0.022. For the same sequence, the protein stability index (Saccharomyces cerevisiae [1]; [6]) was 0.374 ± 0.021, the protein stability index (Saccharomyces cerevisiae [1]; [7]) was 0.202 ± 0.013 and the protein stability index (Saccharomyces cerevisiae [1]; [8]) was 0.215 ± 0.02. The protein stability index (Saccharomyces cerevisiae [1]; [9]) was 0.356 ± 0.03 and the protein stability index (Saccharomyces cerevisiae [2]) was 0.322 ± 0.016.

WVGGVLLSVVGG showed a protein stability index (Saccharomyces cerevisiae [1]; [3]) of 0.158 ± 0.014, a protein stability index (Saccharomyces cerevisiae [1]; [4]) of 0.413 ± 0.041 and a protein stability index (Saccharomyces cerevisiae [1]; [5]) of 0.213 ± 0.028. The protein stability index (Saccharomyces cerevisiae [1]; [6]) was 0.349 ± 0.0084, the protein stability index (Saccharomyces cerevisiae [1]; [7]) was 0.179 ± 0.01 and the protein stability index (Saccharomyces cerevisiae [1]; [8]) was 0.192 ± 0.029. For the same sequence, the protein stability index (Saccharomyces cerevisiae [1]; [9]) was 0.399 ± 0.059 and the protein stability index (Saccharomyces cerevisiae [2]) was 0.245 ± 0.014.

WVRLGRSWTTVG was tested, and the protein stability index (Saccharomyces cerevisiae [1]; [3]) was 0.68 ± 0.054, the protein stability index (Saccharomyces cerevisiae [1]; [4]) was 0.736 ± 0.013 and the protein stability index (Saccharomyces cerevisiae [1]; [5]) was 0.686 ± 0.035. It also gave a protein stability index (Saccharomyces cerevisiae [1]; [6]) of 0.754 ± 0.013, a protein stability index (Saccharomyces cerevisiae [1]; [7]) of 0.22 ± 0.034 and a protein stability index (Saccharomyces cerevisiae [1]; [8]) of 0.283 ± 0.016. For the same sequence, the protein stability index (Saccharomyces cerevisiae [1]; [9]) was 0.549 ± 0.0057 and the protein stability index (Saccharomyces cerevisiae [2]) was 0.422 ± 0.029.

For WVRLWGVLEAQG, the protein stability index (Saccharomyces cerevisiae [1]; [3]) was 0.349 ± 0.013, the protein stability index (Saccharomyces cerevisiae [1]; [4]) was 0.445 ± 0.022 and the protein stability index (Saccharomyces cerevisiae [1]; [5]) was 0.334 ± 0.028. For the same sequence, the protein stability index (Saccharomyces cerevisiae [1]; [6]) was 0.369 ± 0.0011, the protein stability index (Saccharomyces cerevisiae [1]; [7]) was 0.344 ± 0.028 and the protein stability index (Saccharomyces cerevisiae [1]; [8]) was 0.332 ± 0.012. It also gave a protein stability index (Saccharomyces cerevisiae [1]; [9]) of 0.3675 ± 0.0028 and a protein stability index (Saccharomyces cerevisiae [2]) of 0.3627 ± 0.0029.

With WVSFYLLFFFSF the protein stability index (Saccharomyces cerevisiae [1]; [3]) was 0.459 ± 0.007, the protein stability index (Saccharomyces cerevisiae [1]; [4]) was 0.4959 ± 0.0028 and the protein stability index (Saccharomyces cerevisiae [1]; [5]) was 0.42 ± 0.044. For the same sequence, the protein stability index (Saccharomyces cerevisiae [1]; [6]) was 0.539 ± 0.015, the protein stability index (Saccharomyces cerevisiae [1]; [7]) was 0.395 ± 0.0067 and the protein stability index (Saccharomyces cerevisiae [1]; [8]) was 0.395 ± 0.017. For the same sequence, the protein stability index (Saccharomyces cerevisiae [1]; [9]) was 0.5 ± 0.015 and the protein stability index (Saccharomyces cerevisiae [2]) was 0.483 ± 0.023.

With YFFFPILCFCFF the protein stability index (Saccharomyces cerevisiae [1]; [3]) was 0.439 ± 0.03, the protein stability index (Saccharomyces cerevisiae [1]; [4]) was 0.43 ± 0.012 and the protein stability index (Saccharomyces cerevisiae [1]; [5]) was 0.38 ± 0.028. It also gave a protein stability index (Saccharomyces cerevisiae [1]; [6]) of 0.479 ± 0.0088, a protein stability index (Saccharomyces cerevisiae [1]; [7]) of 0.429 ± 0.028 and a protein stability index (Saccharomyces cerevisiae [1]; [8]) of 0.381 ± 0.018. For the same sequence, the protein stability index (Saccharomyces cerevisiae [1]; [9]) was 0.437 ± 0.0084 and the protein stability index (Saccharomyces cerevisiae [2]) was 0.419 ± 0.047.

In the case of YFLFLRLVFLFF, the protein stability index (Saccharomyces cerevisiae [1]; [3]) is reported as 0.217 ± 0.015, the protein stability index (Saccharomyces cerevisiae [1]; [4]) is reported as 0.222 ± 0.032 and the protein stability index (Saccharomyces cerevisiae [1]; [5]) is reported as 0.233 ± 0.018. It also gave a protein stability index (Saccharomyces cerevisiae [1]; [6]) of 0.3874 ± 0.0034, a protein stability index (Saccharomyces cerevisiae [1]; [7]) of 0.186 ± 0.013 and a protein stability index (Saccharomyces cerevisiae [1]; [8]) of 0.178 ± 0.018. For the same sequence, the protein stability index (Saccharomyces cerevisiae [1]; [9]) was 0.257 ± 0.0034 and the protein stability index (Saccharomyces cerevisiae [2]) was 0.23 ± 0.032.

YILLRWVNLSCL gave a protein stability index (Saccharomyces cerevisiae [1]; [3]) of 0.524 ± 0.012, a protein stability index (Saccharomyces cerevisiae [1]; [4]) of 0.587 ± 0.013 and a protein stability index (Saccharomyces cerevisiae [1]; [5]) of 0.488 ± 0.022. For the same sequence, the protein stability index (Saccharomyces cerevisiae [1]; [6]) was 0.645 ± 0.0099, the protein stability index (Saccharomyces cerevisiae [1]; [7]) was 0.149 ± 0.017 and the protein stability index (Saccharomyces cerevisiae [1]; [8]) was 0.156 ± 0.021. The protein stability index (Saccharomyces cerevisiae [1]; [9]) was 0.283 ± 0.0069 and the protein stability index (Saccharomyces cerevisiae [2]) was 0.236 ± 0.062.

Work on YPVAWSSAIIIR yielded a protein stability index (Saccharomyces cerevisiae [1]; [3]) of 0.438 ± 0.041, a protein stability index (Saccharomyces cerevisiae [1]; [4]) of 0.4531 ± 0.0036 and a protein stability index (Saccharomyces cerevisiae [1]; [5]) of 0.362 ± 0.022. For the same sequence, the protein stability index (Saccharomyces cerevisiae [1]; [6]) was 0.5314 ± 0.0037, the protein stability index (Saccharomyces cerevisiae [1]; [7]) was 0.423 ± 0.018 and the protein stability index (Saccharomyces cerevisiae [1]; [8]) was 0.371 ± 0.017. It also gave a protein stability index (Saccharomyces cerevisiae [1]; [9]) of 0.506 ± 0.0061 and a protein stability index (Saccharomyces cerevisiae [2]) of 0.435 ± 0.025.

YQKIARVSLAVS gave a protein stability index (Saccharomyces cerevisiae [1]; [3]) of 0.466 ± 0.015, a protein stability index (Saccharomyces cerevisiae [1]; [4]) of 0.512 ± 0.02 and a protein stability index (Saccharomyces cerevisiae [1]; [5]) of 0.347 ± 0.038. The protein stability index (Saccharomyces cerevisiae [1]; [6]) was 0.526 ± 0.014, the protein stability index (Saccharomyces cerevisiae [1]; [7]) was 0.27 ± 0.021 and the protein stability index (Saccharomyces cerevisiae [1]; [8]) was 0.328 ± 0.025. The protein stability index (Saccharomyces cerevisiae [1]; [9]) was 0.4779 ± 0.0035 and the protein stability index (Saccharomyces cerevisiae [2]) was 0.424 ± 0.015.

YVIGLLFVVSGV showed a protein stability index (Saccharomyces cerevisiae [1]; [3]) of 0.265 ± 0.013, a protein stability index (Saccharomyces cerevisiae [1]; [4]) of 0.366 ± 0.025 and a protein stability index (Saccharomyces cerevisiae [1]; [5]) of 0.258 ± 0.044. It also gave a protein stability index (Saccharomyces cerevisiae [1]; [6]) of 0.465 ± 0.029, a protein stability index (Saccharomyces cerevisiae [1]; [7]) of 0.229 ± 0.0076 and a protein stability index (Saccharomyces cerevisiae [1]; [8]) of 0.251 ± 0.033. It also gave a protein stability index (Saccharomyces cerevisiae [1]; [9]) of 0.385 ± 0.03 and a protein stability index (Saccharomyces cerevisiae [2]) of 0.39 ± 0.0085.

With YYKGGYLYLRLS the protein stability index (Saccharomyces cerevisiae [1]; [3]) was 0.398 ± 0.031, the protein stability index (Saccharomyces cerevisiae [1]; [4]) was 0.4395 ± 0.0037 and the protein stability index (Saccharomyces cerevisiae [1]; [5]) was 0.454 ± 0.029. For the same sequence, the protein stability index (Saccharomyces cerevisiae [1]; [6]) was 0.607 ± 0.035, the protein stability index (Saccharomyces cerevisiae [1]; [7]) was 0.171 ± 0.0093 and the protein stability index (Saccharomyces cerevisiae [1]; [8]) was 0.15 ± 0.018. It also gave a protein stability index (Saccharomyces cerevisiae [1]; [9]) of 0.316 ± 0.036 and a protein stability index (Saccharomyces cerevisiae [2]) of 0.253 ± 0.015.
